Assay results published in the supplement of paper PMC9112550, “Optimization of the antimicrobial peptide Bac7 by deep mutational scanning” (BMC Biology, 2022).

The sequences below were run on Escherichia coli TOP10 (assay: shrunken log2 fold change of peptide-encoding DNA abundance (4.5 h post-induction vs induction); higher = less antimicrobial activity (less host growth inhibition)). Conditions: time post-induction: 4.5 h; library: site-saturation at positions 5, 18, 19, 20.
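Also: peptides expressed intracellularly from a pBAD plasmid library in pooled LB shake-flask culture, induced with 0.3% L-arabinose, DNA abundance read by NGS, three biological replicates, DESeq2 with apeglm shrinkage.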

Sequence	shrunken log2 fold change
RRIRQRPPRLPRPRPRPDSYPRP	-0.127
RRIRIRPPRLPRPRPRPNYFPRP	-0.749
RRIRSRPPRLPRPRPRPPDHPRP	0.202
RRIRERPPRLPRPRPRPNLSPRP	-0.15
RRIRARPPRLPRPRPRPTAVPRP	0.873
RRIRMRPPRLPRPRPRPLSVPRP	0.401
RRIRGRPPRLPRPRPRPVCHPRP	0.54
RRIRPRPPRLPRPRPRPVVGPRP	0.212
RRIRLRPPRLPRPRPRPSRCPRP	0.05
RRIRVRPPRLPRPRPRPFDCPRP	-0.0718
RRIRERPPRLPRPRPRPCTHPRP	-1.36
RRIRIRPPRLPRPRPRPWRDPRP	-0.0858
RRIRARPPRLPRPRPRPDIKPRP	-0.026
RRIRHRPPRLPRPRPRPWTLPRP	-0.00151
RRIRARPPRLPRPRPRPDPIPRP	-0.521
RRIRERPPRLPRPRPRPKWTPRP	0.0657
RRIRERPPRLPRPRPRPPSNPRP	-0.208
RRIRCRPPRLPRPRPRPCLYPRP	-0.117
RRIRMRPPRLPRPRPRPLIWPRP	0.246
RRIRCRPPRLPRPRPRPCHCPRP	0.00562
RRIRDRPPRLPRPRPRPTGWPRP	1.21
RRIRQRPPRLPRPRPRPSCHPRP	-0.253
RRIRVRPPRLPRPRPRPVCGPRP	0.211
RRIRFRPPRLPRPRPRPDIKPRP	-0.602
RRIRFRPPRLPRPRPRPLINPRP	-0.421

Sequence	shrunken log2 fold change
RRIRMRPPRLPRPRPRPCRRPRP	0.0172
RRIRPRPPRLPRPRPRPLRSPRP	0.167
RRIRNRPPRLPRPRPRPIRMPRP	-0.00776
RRIRLRPPRLPRPRPRPGVHPRP	-0.308
RRIRMRPPRLPRPRPRPSCLPRP	-0.0926
RRIRYRPPRLPRPRPRPLCAPRP	-0.356
RRIRDRPPRLPRPRPRPTAHPRP	0.547
RRIRKRPPRLPRPRPRPGMIPRP	-0.0362
RRIRPRPPRLPRPRPRPDFKPRP	-0.464
RRIRHRPPRLPRPRPRPRVCPRP	0.318
RRIRIRPPRLPRPRPRPSTEPRP	-0.388
RRIRPRPPRLPRPRPRPGRIPRP	0.0185
RRIRYRPPRLPRPRPRPEGRPRP	0.172
RRIRARPPRLPRPRPRPVDGPRP	0.381
RRIRIRPPRLPRPRPRPCWVPRP	-0.451
RRIRCRPPRLPRPRPRPYQAPRP	-1.11
RRIRCRPPRLPRPRPRPACIPRP	-0.186
RRIRKRPPRLPRPRPRPGYDPRP	-0.0159
RRIRSRPPRLPRPRPRPDNYPRP	-0.303
RRIRWRPPRLPRPRPRPTAGPRP	0.965
RRIRHRPPRLPRPRPRPKMMPRP	0.00455
RRIRKRPPRLPRPRPRPRCMPRP	0.401
RRIRKRPPRLPRPRPRPTKCPRP	-0.184
RRIRRRPPRLPRPRPRPNDSPRP	-0.286
RRIRDRPPRLPRPRPRPSATPRP	0.515

Sequence	shrunken log2 fold change
RRIRGRPPRLPRPRPRPKTTPRP	0.521
RRIRNRPPRLPRPRPRPYVRPRP	-0.451
RRIRPRPPRLPRPRPRPDACPRP	0.183
RRIRKRPPRLPRPRPRPKHQPRP	0.132
RRIRYRPPRLPRPRPRPRFIPRP	-0.671
RRIRVRPPRLPRPRPRPKIRPRP	0.161
RRIRIRPPRLPRPRPRPPCEPRP	0.00219
RRIRFRPPRLPRPRPRPVQTPRP	0.0206
RRIRNRPPRLPRPRPRPMMGPRP	0.0355
RRIRNRPPRLPRPRPRPIQWPRP	0.0441
RRIRLRPPRLPRPRPRPQDCPRP	0.0274
RRIRGRPPRLPRPRPRPNKIPRP	0.214
RRIRQRPPRLPRPRPRPLQLPRP	-0.126
RRIRLRPPRLPRPRPRPCLHPRP	-0.113
RRIRSRPPRLPRPRPRPRLTPRP	0.0483
RRIRGRPPRLPRPRPRPFTSPRP	-0.0475
RRIRYRPPRLPRPRPRPTVGPRP	0.0163
RRIRWRPPRLPRPRPRPTPDPRP	0.746
RRIRIRPPRLPRPRPRPFSNPRP	-0.28
RRIRCRPPRLPRPRPRPRQEPRP	0.121
RRIRLRPPRLPRPRPRPVACPRP	0.0944
RRIRVRPPRLPRPRPRPFYKPRP	-0.502
RRIRPRPPRLPRPRPRPTTFPRP	-0.173
RRIRDRPPRLPRPRPRPSMNPRP	-0.152
RRIRFRPPRLPRPRPRPWDVPRP	-0.0811
